Reference: PMC5016258

Experiments:
[1] = biological target: Angiotensin-(1-7) Mas receptor fused to enhanced yellow fluorescent protein (UniProt P04201); assay: radioligand binding
[2] = biological target: B2R-MasR heteromer on cells co-transfected with B2R-CFP and MasR-YFP (UniProt P30411); assay: radioligand binding
UniProt P30411, sequence (P30411 whole entry, chain 1 of 2): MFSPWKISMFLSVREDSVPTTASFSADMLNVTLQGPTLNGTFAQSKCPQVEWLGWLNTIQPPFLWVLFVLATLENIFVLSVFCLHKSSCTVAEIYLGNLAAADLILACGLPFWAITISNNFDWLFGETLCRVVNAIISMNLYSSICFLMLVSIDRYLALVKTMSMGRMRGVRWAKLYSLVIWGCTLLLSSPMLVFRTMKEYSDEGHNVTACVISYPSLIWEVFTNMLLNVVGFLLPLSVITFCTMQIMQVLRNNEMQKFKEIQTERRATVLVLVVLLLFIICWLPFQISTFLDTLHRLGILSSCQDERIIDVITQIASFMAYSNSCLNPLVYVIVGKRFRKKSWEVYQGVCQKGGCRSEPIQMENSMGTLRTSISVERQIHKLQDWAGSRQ
UniProt P30411, sequence (P04201 whole entry, chain 2 of 2, further chain): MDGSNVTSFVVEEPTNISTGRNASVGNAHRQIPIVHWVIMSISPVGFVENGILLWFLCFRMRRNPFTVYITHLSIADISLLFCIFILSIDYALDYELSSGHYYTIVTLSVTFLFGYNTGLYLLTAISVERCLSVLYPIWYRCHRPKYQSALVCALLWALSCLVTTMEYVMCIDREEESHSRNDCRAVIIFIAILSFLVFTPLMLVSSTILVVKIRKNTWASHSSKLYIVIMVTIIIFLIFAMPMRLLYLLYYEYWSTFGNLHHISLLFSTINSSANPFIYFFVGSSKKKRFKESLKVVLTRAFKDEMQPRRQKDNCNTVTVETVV

UniProt P04201, sequence (P04201 whole entry, the tested form may be a part): as the sequence (P04201 whole entry, chain 2 of 2, further chain) above

Kd [1]: 1.15 nM
Kd [2]: 0.139 nM
Substance: Angiotensin-(1-7) (peptide)
